Data from article PMC11079029, “Intramolecular autoinhibition regulates the selectivity of PRPF40A tandem WW domains for proline-rich motifs” (Nature Communications, 2024).

B1: MEPCE (protein, UniProt Q7L2J0 1-689, looked up)
7SK snRNA methylphosphate …: MIEMAAEKEPFLVPAPPPPLKDESGGGGGPTVPPHQEAASGELRGGTERGPGRCAPSAGSPAAAVGRESPGAAATSSSGPQAQQHRGGGPQAQSHGEARLSDPPGRAAPPDVGEERRGGGGTELGPPAPPRPRNGYQPHRPPGGGGGKRRNSCNVGGGGGGFKHPAFKRRRRVNSDCDSVLPSNFLLGGNIFDPLNLNSLLDEEVSRTLNAETPKSSPLPAKGRDPVEILIPKDITDPLSLNTCTDEGHVVLASPLKTGRKRHRHRGQHHQQQQAAGGSESHPVPPTAPLTPLLHGEGASQQPRHRGQNRDAPQPYELNTAINCRDEVVSPLPSALQGPSGSLSAPPAASVISAPPSSSSRHRKRRRTSSKSEAGARGGGQGSKEKGRGSWGGRHHHHHPLPAAGFKKQQRKFQYGNYCKYYGYRNPSCEDGRLRVLKPEWFRGRDVLDLGCNVGHLTLSIACKWGPSRMVGLDIDSRLIHSARQNIRHYLSEELRLPPQTLEGDPGAEGEEGTTTVRKRSCFPASLTASRGPIAAPQVPLDGADTSVFPNNVVFVTGNYVLDRDDLVEAQTPEYDVVLCLSLTKWVHLNWGDEGLKRMFRRIYRHLRPGGILVLEPQPWSSYGKRKTLTETIYKNYYRIQLKPEQFSSYLTSPDVGFSSYELVATPHNTSKGFQRPVYLFHKARSPSH
B2: ATXN10 (protein, UniProt Q9UBB4 1-475, looked up)
Ataxin-10: MAAPRPPPARLSGVMVPAPIQDLEALRALTALFKEQRNRETAPRTIFQRVLDILKKSSHAVELACRDPSQVENLASSLQLITECFRCLRNACIECSVNQNSIRNLDTIGVAVDLILLFRELRVEQESLLTAFRCGLQFLGNIASRNEDSQSIVWVHAFPELFLSCLNHPDKKIVAYSSMILFTSLNHERMKELEENLNIAIDVIDAYQKHPESEWPFLIITDLFLKSPELVQAMFPKLNNQERVTLLDLMIAKITSDEPLTKDDIPVFLRHAELIASTFVDQCKTVLKLASEEPPDDEEALATIRLLDVLCEMTVNTELLGYLQVFPGLLERVIDLLRVIHVAGKETTNIFSNCGCVRAEGDISNVANGFKSHLIRLIGNLCYKNKDNQDKVNELDGIPLILDNCNISDSNPFLTQWVIYAIRNLTEDNSQNQDLIAKMEEQGLADASLLKKVGFEVEKKGEKLILKSTRDTPKP
B3: HNRNPUL1 (protein, UniProt Q9BUJ2 1-856, looked up)
Heterogeneous nuclear …: MDVRRLKVNELREELQRRGLDTRGLKAELAERLQAALEAEEPDDERELDADDEPGRPGHINEEVETEGGSELEGTAQPPPPGLQPHAEPGGYSGPDGHYAMDNITRQNQFYDTQVIKQENESGYERRPLEMEQQQAYRPEMKTEMKQGAPTSFLPPEASQLKPDRQQFQSRKRPYEENRGRGYFEHREDRRGRSPQPPAEEDEDDFDDTLVAIDTYNCDLHFKVARDRSSGYPLTIEGFAYLWSGARASYGVRRGRVCFEMKINEEISVKHLPSTEPDPHVVRIGWSLDSCSTQLGEEPFSYGYGGTGKKSTNSRFENYGDKFAENDVIGCFADFECGNDVELSFTKNGKWMGIAFRIQKEALGGQALYPHVLVKNCAVEFNFGQRAEPYCSVLPGFTFIQHLPLSERIRGTVGPKSKAECEILMMVGLPAAGKTTWAIKHAASNPSKKYNILGTNAIMDKMRVMGLRRQRNYAGRWDVLIQQATQCLNRLIQIAARKKRNYILDQTNVYGSAQRRKMRPFEGFQRKAIVICPTDEDLKDRTIKRTDEEGKDVPDHAVLEMKANFTLPDVGDFLDEVLFIELQREEADKLVRQYNEEGRKAGPPPEKRFDNRGGGGFRGRGGGGGFQRYENRGPPGGNRGGFQNRGGGSGGGGNYRGGFNRSGGGGYSQNRWGNNNRDNNNSNNRGSYNRAPQQQPPPQQPPPPQPPPQQPPPPPSYSPARNPPGASTYNKNSNIPGSSANTSTPTVSSYSPPQPSYSQPPYNQGGYSQGYTAPPPPPPPPPAYNYGSYGGYNPAPYTPPPPPTAQTYPQPSYNQYQQYAQQWNQYYQNQGQWPPYYGNYDYGSYSGNTQGGTSTQ
B4: DDX20 (protein, UniProt Q9UHI6 1-824, looked up)
Probable ATP-dependent RNA …: MAAAFEASGALAAVATAMPAEHVAVQVPAPEPTPGPVRILRTAQDLSSPRTRTGDVLLAEPADFESLLLSRPVLEGLRAAGFERPSPVQLKAIPLGRCGLDLIVQAKSGTGKTCVFSTIALDSLVLENLSTQILILAPTREIAVQIHSVITAIGIKMEGLECHVFIGGTPLSQDKTRLKKCHIAVGSPGRIKQLIELDYLNPGSIRLFILDEADKLLEEGSFQEQINWIYSSLPASKQMLAVSATYPEFLANALTKYMRDPTFVRLNSSDPSLIGLKQYYKVVNSYPLAHKVFEEKTQHLQELFSRIPFNQALVFSNLHSRAQHLADILSSKGFPAECISGNMNQNQRLDAMAKLKHFHCRVLISTDLTSRGIDAEKVNLVVNLDVPLDWETYMHRIGRAGRFGTLGLTVTYCCRGEEENMMMRIAQKCNINLLPLPDPIPSGLMEECVDWDVEVKAAVHTYGIASVPNQPLKKQIQKIERTLQIQKAHGDHMASSRNNSVSGLSVKSKNNTKQKLPVKSHSECGIIEKATSPKELGCDRQSEEQMKNSVQTPVENSTNSQHQVKEALPVSLPQIPCLSSFKIHQPYTLTFAELVEDYEHYIKEGLEKPVEIIRHYTGPGDQTVNPQNGFVRNKVIEQRVPVLASSSQSGDSESDSDSYSSRTSSQSKGNKSYLEGSSDNQLKDSESTPVDDRISLEQPPNGSDTPNPEKYQESPGIQMKTRLKEGASQRAKQSRRNLPRRSSFRLQTEAQEDDWYDCHREIRLSFSDTYQDYEEYWRAYYRAWQEYYAAASHSYYWNAQRHPSWMAAYHMNTIYLQEMMHSNQ
B5: SF3B1 (protein, UniProt O75533 1-1304, looked up)
Splicing factor 3B subunit 1: MAKIAKTHEDIEAQIREIQGKKAALDEAQGVGLDSTGYYDQEIYGGSDSRFAGYVTSIAATELEDDDDDYSSSTSLLGQKKPGYHAPVALLNDIPQSTEQYDPFAEHRPPKIADREDEYKKHRRTMIISPERLDPFADGGKTPDPKMNARTYMDVMREQHLTKEEREIRQQLAEKAKAGELKVVNGAAASQPPSKRKRRWDQTADQTPGATPKKLSSWDQAETPGHTPSLRWDETPGRAKGSETPGATPGSKIWDPTPSHTPAGAATPGRGDTPGHATPGHGGATSSARKNRWDETPKTERDTPGHGSGWAETPRTDRGGDSIGETPTPGASKRKSRWDETPASQMGGSTPVLTPGKTPIGTPAMNMATPTPGHIMSMTPEQLQAWRWEREIDERNRPLSDEELDAMFPEGYKVLPPPAGYVPIRTPARKLTATPTPLGGMTGFHMQTEDRTMKSVNDQPSGNLPFLKPDDIQYFDKLLVDVDESTLSPEEQKERKIMKLLLKIKNGTPPMRKAALRQITDKAREFGAGPLFNQILPLLMSPTLEDQERHLLVKVIDRILYKLDDLVRPYVHKILVVIEPLLIDEDYYARVEGREIISNLAKAAGLATMISTMRPDIDNMDEYVRNTTARAFAVVASALGIPSLLPFLKAVCKSKKSWQARHTGIKIVQQIAILMGCAILPHLRSLVEIIEHGLVDEQQKVRTISALAIAALAEAATPYGIESFDSVLKPLWKGIRQHRGKGLAAFLKAIGYLIPLMDAEYANYYTREVMLILIREFQSPDEEMKKIVLKVVKQCCGTDGVEANYIKTEILPPFFKHFWQHRMALDRRNYRQLVDTTVELANKVGAAEIISRIVDDLKDEAEQYRKMVMETIEKIMGNLGAADIDHKLEEQLIDGILYAFQEQTTEDSVMLNGFGTVVNALGKRVKPYLPQICGTVLWRLNNKSAKVRQQAADLISRTAVVMKTCQEEKLMGHLGVVLYEYLGEEYPEVLGSILGALKAIVNVIGMHKMTPPIKDLLPRLTPILKNRHEKVQENCIDLVGRIADRGAEYVSAREWMRICFELLELLKAHKKAIRRATVNTFGYIAKAIGPHDVLATLLNNLKVQERQNRVCTTVAIAIVAETCSPFTVLPALMNEYRVPELNVQNGVLKSLSFLFEYIGEMGKDYIYAVTPLLEDALMDRDLVHRQTASAVVQHMSLGVYGFGCEDSLNHLLNYVWPNVFETSPHVIQAVMGALEGLRVAIGPCRMLQYCLQGLFHPARKVRDVYWKIYNSIYIGSQDALIAHYPRIYNDDKNTYIRYELDYIL

System: GFP-tagged PRPF40A-Nter-MUT
Assay: SILAC GFP-immunoprecipitation with quantitative mass spectrometry, mutant construct
Assay type: binding, human (Hela cells)
Conditions: quantitative MS, Hela cells, protein by gene name
Description: The PRPF40A N-terminal region (isoform 2, residues 1-221) was PCR-amplified from RPE1 cDNA (ATCC, Cat# CRL-4000) cDNA. The sequence was amplified in two fragments and both fragments were combined by overhang. All PCRs were carried out using Q5 Polymerase (NEB) according to manufacturer’s protocol. The resulting PRPF40A N-terminal region was cloned into a GFP-expressing pcDNA5 vector (see pcDNA5 GFP vector in ref. [28]) using Q5 Site-Directed Mutagenesis Kit (NEB). Nter-MUT, containing the PPVP/PALPP motifs changed to AAAA/AAAAA, was obtained by mutating the N-ter-WW12-containing plasmid with Q5 site-directed mutagenesis. Plasmids were transformed into DH5alpha chemically competent cells. After culturing, DNA isolation was performed with either ZymoPURE Plasmid Miniprep Kit (Zymo Research) or QIAGEN Plasmid Plus Midi Kit (Qiagen). The sequence was confirmed by Sanger Sequencing (GATC Eurofins). All used oligonucleotides are shown in Supplementary Table 6.
Hela cells (ATCC, Cat# CCL-2, RRID:CVCL_0030) were cultured in DMEM SILAC medium (Thermo Fisher) supplemented with 10% filtered FBS (Sigma-Aldrich) and 1% penicillin-streptomycin (Thermo-Fisher). The SILAC medium contains either light (Arg0, Lys0), medium (Arg6, Lys4) or heavy (Arg10, Lys8) isotopes (Cambridge Isotopes Laboratories). Hela cells were cultivated for 14 days in SILAC medium to assure sufficient isotope incorporation. For transfection, 7 × 10^6 Hela cells were seeded in a 15 cm culture dish in 20 ml of respective SILAC medium and grown for 24 h. The cells were then transfected with 20 µg of plasmids expressing either GFP (Control), GFP-tagged N-ext-WW12 or GFP-tagged-N-ext-WW12-MUT utilizing 64 µl FuGENE (Promega) (ratio 1:3.2), according to manufacturer’s protocol.
24 h post-transfection, cells were washed twice in ice-cold PBS and harvested in 1 ml mRIPA buffer (50 mM Tris, 150 mM NaCl, 1 mM EDTA, 1% NP-40, 0.1% Na-deoxycholate), supplemented with 2 µl Turbo-DNase (Thermo Fisher) and 3 µl protease-inhibitor cocktail cOmplete (Sigma-Aldrich). Cell lysates were cleared by centrifugation at 16,000 × g, 4 °C, 15 min and concentration was measured using Pierce BCA Protein Assay kit (Thermo Scientific). The expressed constructs were pulled down by incubating 2.5 mg of lysate with 20 μl GFP-nanobody agarose beads (ChromoTek, GTA-20) for 1 h at 4 °C under constant agitation. Subsequently, beads were washed three times with mRIPA buffer without supplements, then eluted in 1X NuPAGE LDS sample buffer (Thermo Scientific). To detach the proteins from the beads, the eluate was heated to 70 °C for 10 min To evaluate the success of the immunoprecipitation, input (1%) and IP samples were analyzed on a NuPAGE 4–12% Bis-Tris-Acrylamide gel (Thermo Fisher) using NuPAGE MOPS SDS running buffer (Thermo Fisher). Proteins were stained using Sypro Ruby protein gel stain (Thermo Fisher) according to manufacturer’s protocol.
The eluted proteins of three SILAC states (light, medium, heavy) were combined. The proteins were then reduced in DTT, alkylated in iodoacetamide, and purified using the SP3 paramagnetic bead approach. This was followed by overnight enzymatic digestion using trypsin (1 µg per sample) in 50 mM ammonium bicarbonate at 37 °C. The peptide solution was then purified by solid phase extraction in C18 StageTips[99].
Peptides were separated by online reverse phase liquid chromatography using the EASY-nLC 1000 system (Thermo Scientific) in a 30-cm analytical column (inner diameter: 75 μm; heated at 50 °C) packed in-house with ReproSil-Pur 120 C18-AQ 1.9-μm beads (Dr. Maisch GmbH). The gradient separation was performed through a 105-min non-linear gradient of 1.6–32% acetonitrile with 0.1% formic acid at a nanoflow rate of 225 nl/min. The eluted peptides were sprayed directly by electrospray ionization into a Q Exactive Plus Orbitrap mass spectrometer (Thermo Scientific). […]

Molecule	Immunoprecipitation enrichment MUT vs WT, log2 FC
B1	1.321
B2	1.57
B3	1.072
B4	1.113
B5	0.9931
